“And” between values parts separate entries of the source, which are not always exact repeats. Identical values can stand only once. Like-named read-outs stand apart in the source and are kept apart here.
Key:
[1] = system: αvβ6 expressing BxPC3 pancreatic cancer xenografts; conditions: for Tumor: αvβ6 (+)
Method: (§1) Female athymic nude mice, 4–6 weeks old (Charles River), were subcutaneously shoulder-injected with 10^7 cells suspended in 100 µL PBS. Mice were used for imaging and biodistribution studies when xenografted tumors grew to a diameter of ~1 cm.
(§2) Tumor-bearing Nu/Nu female mice (n = 3 for each probe) were anesthetized using 2% isoflurane in oxygen and injected with ~100 µCi (~0.15 nmol) of the tracers described above via the tail vein. Five-minute static PET scans were acquired on an Inveon PET-CT or Inveon D-PET scanner (Siemens Healthcare, Malvern PA). Images were reconstructed by a two-dimensional ordered expectation maximum subset algorithm and calibrated as described below. ROIs were drawn over the tumor on decay-corrected whole-body images using Inveon Research Workplace (IRW) software (Siemens) or ASIPro VM software (Siemens). ROIs were converted to counts g^−1 min^−1, and %ID g^−1 values were determined assuming a tissue density of 1 g ml^−1.
(§3) Scanner activity calibration was performed to map between PET image units and units of radioactivity concentration. A preweighed 50-mL centrifuge tube was filled with distilled water and ^64CuCl2 (∼9.3 MBq [∼250 μCi] as determined by the dose calibrator) was used to simulate the whole body of the mouse. This tube was weighed, centered in the scanner aperture, and imaged for a 30-min static image, single bed position. From the sample weight and assuming a density of 1 g ml^−1, the activity concentration in the bottle was calculated in units of μCi mL^−1. Eight planes were acquired in the coronal section. A rectangular region of interest (ROI) (counts/pixel/s) was drawn on the middle of eight coronal planes.

in vivo = conditions: female, athymic nude (Nu/Nu), mouse, iv, total radioactivity; for tissue uptake at 2 h: microPET 2 hr; for tissue uptake at 4 h: microPET 4 hr; for tissue uptake at 24 h: microPET 24 hr; for tissue to tissue ratio at 1 h: tumor / muscle, 100 uCi
Method: as §1, §2, §3

[2] = PET, 1 h p.i., average ± SD, n = 3
[3] = microPET 2 hr, individual mice, listed as R01 DOTA Cu-64
[4] = microPET 4 hr, individual mice, listed as R01 DOTA Cu-64
[5] = kidney, PET, 1 h p.i., average ± SD, n = 3
[6] = kidney, microPET 1 hr, individual mice
[7] = liver, microPET 1 hr, individual mice
[8] = muscle, PET, 1 h p.i., average ± SD, n = 3
[9] = muscle, microPET 1 hr, individual mice
[10] = tumor (BxPC3 xenograft), Tumor avb6(+), microPET 1 hr, individual mice, one line per mouse
[11] = tumor (BxPC3 xenograft), Tumor avb6(+), individual mice
[12] = tumor (BxPC3 xenograft, αvβ6 positive), Tumor, PET, 1 h p.i., αvβ6 (+), average ± SD, n = 3
[13] = microPET 4 hr, individual mice, listed as R01-MG DOTA Cu-64
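Further: shoulder subcutaneous xenografts near 1 cm, tracer given via tail vein, 5-min static PET, ROI activity on decay-corrected images converted to %ID/g with tissue density taken as 1 g/mL.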

With `CC[C@H](C)[C@@H]1NC(=O)[C@@H](NC(=O)CNC(=O)CN2CCN(CC(=O)O)CCN(CC(=O)O)CCN(CC(=O)O)CC2)CSSC[C@@H]2NC(=O)[C@H](C)NC(=O)CNC(=O)[C@@H]3CCCN3C(=O)[C@@H]3CSSC[C@@H](C(=O)NCC(N)=O)NC(=O)[C@H](Cc4ccc(O)cc4)NC(=O)CNC(=O)[C@H](CC(N)=O)NC(=O)CNC(=O)[C@H](CCCNC(=N)N)NC(=O)[C@H](CSSC[C@H](NC(=O)[C@H](CCCNC(=N)N)NC(=O)[C@H](Cc4ccccc4)NC(=O)[C@H](CC(C)C)NC(=O)[C@H](CC(C)C)NC(=O)[C@H]([C@@H](C)O)NC(=O)CNC(=O)[C@H](CC(C)C)NC(=O)[C@H](CC(=O)O)NC(=O)[C@H]([C@@H](C)O)NC(=O)[C@H](CCCNC(=N)N)NC(=O)[C@H](CCSC)NC(=O)[C@H](CC(N)=O)NC(=O)[C@H](CC(C)C)NC1=O)C(=O)N[C@@H](CCCNC(=N)N)C(=O)N[C@@H](CCCNC(=N)N)C(=O)N[C@@H](CC(=O)O)C(=O)N[C@@H](CO)C(=O)N[C@@H](CC(=O)O)C(=O)N3)NC(=O)[C@H]([C@@H](C)CC)NC2=O` [[^64Cu]DOTA-R01, metal not drawn] the Tumor [1, 2] was ~ 3 %ID g^−1, the Kidney [1, 2] was ~ 30 %ID g^−1 and the Muscle ([1]; microPET 1 hr, individual mice, listed as Ro1 DOTA Cu-64) was 0.4306 %ID/g. The Muscle [1, 3] was 0.407 %ID/g, the “Tumor avb6(+)” value [1, 3] was 2.883 %ID/g and the Kidney [1, 4] was 29.77 %ID/g. For the same molecule, the Muscle [1, 4] was 0.4024 %ID/g, the Muscle ([1]; microPET 24 hr, individual mice, listed as R01 DOTA Cu-64) was 0.3725 %ID/g and the tissue uptake at 1 h (in vivo; [5]) was 30.3 ± 2.33 %ID/g. The tissue uptake at 1 h (in vivo; [6]) was 32.9 %ID/g, the tissue uptake at 2 h (in vivo; kidney, individual mice) was 34.3 %ID/g and the tissue uptake at 4 h (in vivo; kidney, individual mice) was 29.8 %ID/g. It also gave a tissue uptake at 24 h (in vivo; kidney, individual mice) of 11.5 %ID/g, a tissue uptake at 1 h (in vivo; liver, PET, 1 h p.i., average ± SD, n = 3) of 2.26 ± 0.11 %ID/g and a tissue uptake at 1 h (in vivo; [7]) of 2.34 %ID/g. It also gave a tissue uptake at 2 h (in vivo; liver, individual mice) of 1.82 %ID/g, a tissue uptake at 4 h (in vivo; liver, individual mice) of 1.79 %ID/g and a tissue uptake at 24 h (in vivo; liver, individual mice) of 2.93 %ID/g. It also gave a tissue uptake at 1 h (in vivo; [8]) of 0.433 ± 0.008 %ID/g, a tissue uptake at 1 h (in vivo; [9]) of 0.427 %ID/g and a tissue uptake at 2 h (in vivo; muscle, individual mice) of 0.404 %ID/g. It also gave a tissue uptake at 4 h (in vivo; muscle, individual mice) of 0.399 %ID/g, a tissue uptake at 24 h (in vivo; muscle, individual mice) of 0.37 %ID/g and a tissue uptake at 1 h (in vivo; [10]) of 2.99 %ID/g. It also gave a tissue uptake at 2 h (in vivo; [11]) of 2.87 %ID/g, a tissue uptake at 4 h (in vivo; [11]) of 2.39 %ID/g and a tissue uptake at 24 h (in vivo; [11]) of 1.85 %ID/g. For the same molecule, the tissue uptake at 1 h (in vivo; [12]) was 3.07 ± 0.17 %ID/g and the tissue to tissue ratio at 1 h (in vivo) was 7.09 ± 0.27.

For `CC[C@H](C)[C@@H]1NC(=O)[C@@H](NC(=O)CNC(=O)CN2CCN(CC(=O)O)CCN(CC(=O)O)CCN(CC(=O)O)CC2)CSSC[C@@H]2NC(=O)[C@H](C)NC(=O)CNC(=O)[C@@H]3CCCN3C(=O)[C@@H]3CSSC[C@@H](C(=O)NCC(N)=O)NC(=O)[C@H](Cc4ccc(O)cc4)NC(=O)CNC(=O)[C@H](CC(N)=O)NC(=O)CNC(=O)[C@H](CCCNC(=N)N)NC(=O)[C@H](CSSC[C@H](NC(=O)[C@H](CCCNC(=N)N)NC(=O)[C@H](Cc4ccccc4)NC(=O)[C@H](CC(C)C)NC(=O)[C@H](CC(C)C)NC(=O)[C@H]([C@@H](C)O)NC(=O)CNC(=O)[C@H](CC(C)C)NC(=O)[C@H](CC(=O)O)NC(=O)[C@H]([C@@H](C)O)NC(=O)[C@H](CCCNC(=N)N)NC(=O)CNC(=O)[C@H](CC(N)=O)NC(=O)[C@H](CC(C)C)NC1=O)C(=O)N[C@@H](CCCNC(=N)N)C(=O)N[C@@H](CCCNC(=N)N)C(=O)N[C@@H](CC(=O)O)C(=O)N[C@@H](CO)C(=O)N[C@@H](CC(=O)O)C(=O)N3)NC(=O)[C@H]([C@@H](C)CC)NC2=O` [[^64Cu]DOTA-R01-MG, metal not drawn], the Tumor [1, 2] was ~ 3 %ID g^−1, the Kidney [1, 2] was ~ 30 %ID g^−1 and the Liver [1, 2] was 2.14 ± 0.38 % injected dose gram^−1. The “Tumor avb6(+)” value ([1]; microPET 1 hr, individual mice, one line per mouse, listed as Ro1-MG DOTA Cu-64) was 2.952 %ID/g, the Muscle ([1]; microPET 1 hr, individual mice, listed as Ro1-MG DOTA Cu-64) was 0.4707 %ID/g and the Muscle ([1]; microPET 2 hr, individual mice, listed as R01-MG DOTA Cu-64) was 0.4023 %ID/g and 0.398 %ID/g. For the same molecule, the Liver [1, 13] was 2.382 %ID/g, the Muscle [1, 13] was 0.3296 %ID/g and the Muscle ([1]; microPET 24 hr, individual mice, listed as R01-MG DOTA Cu-64) was 0.3985 %ID/g and 0.3942 %ID/g. For the same molecule, the tissue uptake at 1 h (in vivo; [5]) was 28.4 ± 2.61 %ID/g, the tissue uptake at 1 h (in vivo; [6]) was 25.3 %ID/g and the tissue uptake at 2 h (in vivo; kidney, individual mice) was 26.9 %ID/g. It also gave a tissue uptake at 4 h (in vivo; kidney, individual mice) of 25.6 %ID/g, a tissue uptake at 24 h (in vivo; kidney, individual mice) of 10.8 %ID/g and a tissue uptake at 1 h (in vivo; [7]) of 1.77 %ID/g. The tissue uptake at 2 h (in vivo; liver, individual mice) was 2.38 %ID/g, the tissue uptake at 4 h (in vivo; liver, individual mice) was 2.4 %ID/g and the tissue uptake at 24 h (in vivo; liver, individual mice) was 3.39 %ID/g. It also gave a tissue uptake at 1 h (in vivo; [8]) of 0.472 ± 0.003 %ID/g, a tissue uptake at 1 h (in vivo; [9]) of 0.471 %ID/g and a tissue uptake at 2 h (in vivo; muscle, individual mice) of 0.398 %ID/g. It also gave a tissue uptake at 4 h (in vivo; muscle, individual mice) of 0.385 %ID/g, a tissue uptake at 24 h (in vivo; muscle, individual mice) of 0.394 %ID/g and a tissue uptake at 1 h (in vivo; [10]) of 2.93 %ID/g. It also gave a tissue uptake at 2 h (in vivo; [11]) of 2.27 %ID/g, a tissue uptake at 4 h (in vivo; [11]) of 2.22 %ID/g and a tissue uptake at 24 h (in vivo; [11]) of 2.52 %ID/g. The tissue uptake at 1 h (in vivo; [12]) was 2.74 ± 0.35 %ID/g and the tissue to tissue ratio at 1 h (in vivo) was 5.8 ± 0.72.

Reference: PMC6791878, “Evaluation of integrin αvβ6 cystine knot PET tracers to detect cancer and idiopathic pulmonary fibrosis” (Nature Communications, 2019)
